Drawing on patent US20240270821A1, “GIP/GLP1/GCG TRI-RECEPTOR AGONISTS AND USES THEREOF” (priority 2023, published 2024), this text covers Relative cAMP EC50 and cAMP Rel EC50, nM (1% HSA) for twelve molecules.

Residue numbers refer to the chain shown, from its start.

The chains are these.
T1: human GIP receptor (human) (UniProt P48546)
T1 sequence (looked up): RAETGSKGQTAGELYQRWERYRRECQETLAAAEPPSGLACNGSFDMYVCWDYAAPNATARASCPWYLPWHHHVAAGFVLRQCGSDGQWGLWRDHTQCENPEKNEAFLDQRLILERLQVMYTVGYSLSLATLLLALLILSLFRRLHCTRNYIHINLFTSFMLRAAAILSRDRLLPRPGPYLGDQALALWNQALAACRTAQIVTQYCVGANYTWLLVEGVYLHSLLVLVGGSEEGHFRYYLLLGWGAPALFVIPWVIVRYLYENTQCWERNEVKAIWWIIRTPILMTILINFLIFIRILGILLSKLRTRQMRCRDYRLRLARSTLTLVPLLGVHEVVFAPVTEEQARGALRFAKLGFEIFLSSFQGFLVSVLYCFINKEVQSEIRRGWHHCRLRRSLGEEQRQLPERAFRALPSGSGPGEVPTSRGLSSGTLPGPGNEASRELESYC

B1: Example 782 (peptide)
chain: YXQGTFTSDFSQXLDKKAQXAFIEYLLEXGPSSGAPPPSGX
modifications: synthetic construct; SITE 2: note = 2-Aminoisobutyric Acid; SITE 13: note = alpha-methyl-leucine; SITE 17: note = Lysine is chemically modified through conjugation of the epsilon-amino group of the Lysine side chain with (2-[2-(2-Amino-ethoxy)-ethoxy]-acetyl)-(gamma-Glu)-CO-(CH2) 16-CO2H; SITE 20: n
B2: Example 780 (peptide)
chain: B1 chain with X29A, G34X, X41T
modifications: no C-terminal amide; synthetic construct; SITE 2: note = 2-Aminoisobutyric Acid; SITE 13: note = alpha-methyl-leucine; SITE 17: note = Lysine is chemically modified through conjugation of the epsilon-amino group of the Lysine side chain with (2-[2-(2-Amino-ethoxy)-ethoxy]-acetyl)-(gamma-Glu)-CO-(CH2) 16-CO2H; SITE 20: n
B3: Example 784 (peptide)
chain: B1 chain with X41S
modifications: synthetic construct; SITE 2: note = 2-Aminoisobutyric Acid; SITE 13: note = alpha-methyl-leucine; SITE 17: note = Lysine is chemically modified through conjugation of the epsilon-amino group of the Lysine side chain with (gamma-Glu)2-CO-(CH2)16-CO2H; SITE 20: note = 2-Aminoisobutyric Acid; SITE 29:
B4: Example 787 (peptide)
chain: B1 chain with P31E, X41S
modifications: synthetic construct; SITE 2: note = 2-Aminoisobutyric Acid; SITE 13: note = alpha-methyl-leucine; SITE 17: note = Lysine is chemically modified through conjugation of the epsilon-amino group of the Lysine side chain with (2-[2-(2-Amino-ethoxy)-ethoxy]-acetyl)2-(gamma-Glu)-CO-(CH2 )16-CO2H; SITE 20:
B5: Example 775 (peptide)
chain: B1 chain with X29A, X41S
modifications: synthetic construct; SITE 2: note = 2-Aminoisobutyric Acid; SITE 13: note = alpha-methyl-leucine; SITE 17: note = Lysine is chemically modified through conjugation of the epsilon-amino group of the Lysine side chain with (2-[2-(2-Amino-ethoxy)-ethoxy]-acetyl)-(gamma-Glu)-CO-(CH2) 16-CO2H; SITE 20: n
B6: Example 771 (peptide)
chain: B1 chain with Q12X, X29G, A35X, S39G, X41S
modifications: not fully specified; synthetic construct; SITE 2: note = 2-Aminoisobutyric Acid; SITE 12: note = L-ornithine; SITE 13: note = alpha-methyl-leucine; SITE 17: note = Lysine is chemically modified through conjugation of the epsilon-amino group of the Lysine side chain with (gamma-Glu)2-CO-(CH2)16-CO2H; SITE 20: note = 2-Am
B7: Example 777 (peptide)
chain: B1 chain with X29A
modifications: synthetic construct; SITE 2: note = 2-Aminoisobutyric Acid; SITE 13: note = alpha-methyl-leucine; SITE 17: note = Lysine is chemically modified through conjugation of the epsilon-amino group of the Lysine side chain with (2-[2-(2-Amino-ethoxy)-ethoxy]-acetyl)-(gamma-Glu)-CO-(CH2) 16-CO2H; SITE 20: n
B8: Example 770 (peptide)
chain: B1 chain with Q12X, X29G, G34X, S39G, X41S
modifications: not fully specified; synthetic construct; SITE 2: note = 2-Aminoisobutyric Acid; SITE 12: note = L-ornithine; SITE 13: note = alpha-methyl-leucine; SITE 17: note = Lysine is chemically modified through conjugation of the epsilon-amino group of the Lysine side chain with (gamma-Glu)2-CO-(CH2)16-CO2H; SITE 20: note = 2-Am
B9: Example 789 (peptide)
chain: B1 chain with P31E, X41E
modifications: synthetic construct; SITE 2: note = 2-Aminoisobutyric Acid; SITE 13: note = alpha-methyl-leucine; SITE 17: note = Lysine is chemically modified through conjugation of the epsilon-amino group of the Lysine side chain with (2-[2-(2-Amino-ethoxy)-ethoxy]-acetyl)-(gamma-Glu)-CO-(CH2) 16-CO2H; SITE 20: n
B10: Example 750 (peptide)
chain: YXQGTXTSDXXIXLDXKAQXEFIEXLVEGGPSSGEPPPSGE
modifications: synthetic construct; SITE 2: note = 2-Aminoisobutyric Acid; SITE 6: note = alpha-methyl-2-fluoro-L-phenylalanine; SITE 10: note = 3-(4-Pyridyl)-L-alanine; SITE 11: note = alpha-methyl-L-serine; SITE 13: note = alpha-methyl-leucine; SITE 16: note = L-ornithine; SITE 17: note = Lysine is chemically mo
B11: Example 767 (peptide)
chain: B10 chain with A18Y, E35A, E41S
modifications: synthetic construct; SITE 2: note = 2-Aminoisobutyric Acid; SITE 6: note = alpha-methyl-2-fluoro-L-phenylalanine; SITE 10: note = 3-(4-Pyridyl)-L-alanine; SITE 11: note = alpha-methyl-L-serine; SITE 13: note = alpha-methyl-leucine; SITE 16: note = L-ornithine; SITE 17: note = Lysine is chemically mo
B12: Example 768 (peptide)
chain: B10 chain with D15E, E35A, E41S
modifications: synthetic construct; SITE 2: note = 2-Aminoisobutyric Acid; SITE 6: note = alpha-methyl-2-fluoro-L-phenylalanine; SITE 10: note = 3-(4-Pyridyl)-L-alanine; SITE 11: note = alpha-methyl-L-serine; SITE 13: note = alpha-methyl-leucine; SITE 16: note = L-ornithine; SITE 17: note = Lysine is chemically mo

For the first assay, the target named is hGLP-1R (Homo sapiens, UniProt P43220). The assay can be described thus: cell-based or functional assay.
Sequence of hGLP-1R (P43220 24-463): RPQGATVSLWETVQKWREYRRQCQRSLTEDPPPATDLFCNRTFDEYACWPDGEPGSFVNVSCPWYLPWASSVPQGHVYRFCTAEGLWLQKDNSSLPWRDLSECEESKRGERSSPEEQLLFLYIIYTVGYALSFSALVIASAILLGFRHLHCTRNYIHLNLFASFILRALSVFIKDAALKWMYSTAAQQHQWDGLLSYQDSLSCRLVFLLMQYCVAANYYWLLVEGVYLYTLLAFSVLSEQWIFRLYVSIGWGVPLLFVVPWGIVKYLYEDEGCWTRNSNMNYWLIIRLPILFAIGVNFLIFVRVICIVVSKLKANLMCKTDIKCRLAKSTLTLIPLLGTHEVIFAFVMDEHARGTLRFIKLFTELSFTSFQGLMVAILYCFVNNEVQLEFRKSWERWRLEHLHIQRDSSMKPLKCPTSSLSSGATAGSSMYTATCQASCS
B1 gave a Relative cAMP EC50 of 1.94 nM and a cAMP Rel EC50, nM (1% HSA) of 354 nM.
B2: the Relative cAMP EC50 was found to be 1.26 nM and the cAMP Rel EC50, nM (1% HSA) came out at 211 nM.
Turning to B3, the Relative cAMP EC50 was 2.09 nM and the cAMP Rel EC50, nM (1% HSA) was 284 nM.
B4 had a Relative cAMP EC50 of 2.55 nM and a cAMP Rel EC50, nM (1% HSA) of 382 nM.
Regarding B5, the Relative cAMP EC50 is 0.993 nM and the cAMP Rel EC50, nM (1% HSA) was 202 nM.
Consider B6, for which the Relative cAMP EC50 came out at 4.38 nM and the cAMP Rel EC50, nM (1% HSA) was determined as 665 nM.
The molecule B7 registered a Relative cAMP EC50 of 0.913 nM and a cAMP Rel EC50, nM (1% HSA) of 231 nM.
As for B8, the Relative cAMP EC50 amounted to 3.91 nM and the cAMP Rel EC50, nM (1% HSA) was determined as 240 nM.
Consider B9, for which the Relative cAMP EC50 is 2.74 nM and the cAMP Rel EC50, nM (1% HSA) turned out to be 379 nM.
On the same counts, the results for B10 are 0.302 nM and 39.1 nM.
Molecule B11 returned a Relative cAMP EC50 of 0.299 nM and a cAMP Rel EC50, nM (1% HSA) of 56.8 nM.
The matching figures for B12: 0.259 nM and 33.2 nM.

For a further assay, the target named is human glucagon receptor (human) (UniProt P47871). The assay can be described thus: cell-based or functional assay.
Sequence of human glucagon receptor (human) (P47871 26-477): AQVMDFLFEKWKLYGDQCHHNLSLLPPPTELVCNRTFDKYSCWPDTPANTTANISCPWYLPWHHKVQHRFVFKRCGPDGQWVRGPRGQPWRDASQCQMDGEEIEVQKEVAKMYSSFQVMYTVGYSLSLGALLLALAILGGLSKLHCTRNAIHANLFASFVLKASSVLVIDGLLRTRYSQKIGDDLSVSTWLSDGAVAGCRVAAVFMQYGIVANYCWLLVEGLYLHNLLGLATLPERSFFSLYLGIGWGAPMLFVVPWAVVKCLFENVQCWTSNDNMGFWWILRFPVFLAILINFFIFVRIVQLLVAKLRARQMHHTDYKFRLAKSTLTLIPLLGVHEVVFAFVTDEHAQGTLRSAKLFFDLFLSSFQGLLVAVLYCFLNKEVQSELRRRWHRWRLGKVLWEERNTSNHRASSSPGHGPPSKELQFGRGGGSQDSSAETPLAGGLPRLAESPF
Molecule B1 registered a Relative cAMP EC50 of 4.96 nM and a cAMP Rel EC50, nM (1% HSA) of 1380 nM.
The molecule B2 registered a Relative cAMP EC50 of 4.84 nM and a cAMP Rel EC50, nM (1% HSA) of 1250 nM.
On the same counts, the results for B3 are 5.21 nM and 711 nM.
B4 showed a Relative cAMP EC50 of 7.81 nM and a cAMP Rel EC50, nM (1% HSA) of 2060 nM.
On the same counts, the results for B5 are 4.36 nM and 724 nM.
Consider B6, for which the Relative cAMP EC50 is 5.05 nM and the cAMP Rel EC50, nM (1% HSA) worked out at 955 nM.
For the molecule B7, the Relative cAMP EC50 is 3.89 nM and the cAMP Rel EC50, nM (1% HSA) turned out to be 1320 nM.
The matching figures for B8: 5.37 nM and 390 nM.
On the same counts, the results for B9 are 3.3 nM and 1200 nM.
On the same counts, the results for B10 are 2 nM and 205 nM.
B11 yielded a Relative cAMP EC50 of 1.13 nM and a cAMP Rel EC50, nM (1% HSA) of 207 nM.
In turn, B12 came in with a Relative cAMP EC50 of 10.3 nM and a cAMP Rel EC50, nM (1% HSA) of 2270 nM.

The target of another assay is T1, human GIP receptor (human). The assay can be described thus: cell-based or functional assay.
B1 had a Relative cAMP EC50 of 0.0711 nM and a cAMP Rel EC50, nM (1% HSA) of 15.5 nM.
The matching figures for B2: 0.111 nM and 22.1 nM.
On the same counts, the results for B3 are 0.0587 nM and 11.8 nM.
As to B4, the Relative cAMP EC50 stood at 0.0675 nM and the cAMP Rel EC50, nM (1% HSA) was determined as 18.6 nM.
Take B5: the Relative cAMP EC50 stood at 0.105 nM and the cAMP Rel EC50, nM (1% HSA) worked out at 25.8 nM.
The molecule B6 gave a Relative cAMP EC50 of 0.232 nM and a cAMP Rel EC50, nM (1% HSA) of 44.2 nM.
On the same counts, the results for B7 are 0.113 nM and 22.2 nM.
On the same counts, the results for B8 are 0.244 nM and 18.2 nM.
B9 displayed a Relative cAMP EC50 of 0.101 nM and a cAMP Rel EC50, nM (1% HSA) of 20.4 nM.
On to B10, for which the Relative cAMP EC50 amounted to 0.00784 nM and the cAMP Rel EC50, nM (1% HSA) is 1.34 nM.
Molecule B11 returned a Relative cAMP EC50 of 0.00792 nM and a cAMP Rel EC50, nM (1% HSA) of 1.51 nM.
Molecule B12 returned a Relative cAMP EC50 of 0.0294 nM and a cAMP Rel EC50, nM (1% HSA) of 2.65 nM.
